Publication doi:10.1101/2025.07.28.667166

How the values were obtained:
Experiment in all cases: NMR
Cys31 = Cys31 (UniProt position 31, FGTDWCGHCQA); details: 298 K; reduced (with DTT), 1 mM protein
Cys34 = Cys34 (UniProt position 34, DWCGHCQAAQP); details: 298 K; reduced (with DTT), 1 mM protein
His33 = His33 (UniProt position 33, TDWCGHCQAAQ); details: 298 K, 1 mM protein

Patrx2 (atypical thioredoxin, PA2694) (Pseudomonas aeruginosa)
pKa (Cys31): 5.8 | pKa (Cys34): greater than 11.0 | pKa (His33; oxidised (C31-C34 disulfide, without DTT)): less than 5 | pKa (His33; reduced (with DTT)): 6.3
